From patent publication US20200347144A1

Assays:
[1] = molecular target: hFc-tagged human 4-1BB extracellular domain protein (4-1BB-hFc) (human) (UniProt Q07011); test: ELISA, coated 4-1BB; Ab concentration not given
[2] = molecular target: monkey 4-1BB-his protein (monkey); test: ELISA, coated monkey 4-1BB-his; Ab 10 ug/ml
[3] = molecular target: monkey 4-1BB-his protein (monkey); test: ELISA, coated monkey 4-1BB-his; Ab 0.0032 ug/ml
[4] = molecular target: monkey 4-1BB-his protein (monkey); test: ELISA, coated monkey 4-1BB-his; Ab 0.4 ug/ml
[5] = molecular target: monkey 4-1BB-his protein (monkey); test: ELISA, coated monkey 4-1BB-his; Ab 0.0006 ug/ml
[6] = molecular target: monkey 4-1BB-his protein (monkey); test: ELISA, coated monkey 4-1BB-his; Ab 2 ug/ml
[7] = molecular target: monkey 4-1BB-his protein (monkey); test: ELISA, coated monkey 4-1BB-his; Ab 0.0001 ug/ml
[8] = molecular target: monkey 4-1BB-his protein (monkey); test: ELISA, coated monkey 4-1BB-his; Ab 0.016 ug/ml
OX40 = test: ELISA, coated OX40; Ab concentration not given
GITR = test: ELISA, coated GITR; Ab concentration not given
[9] = molecular target: monkey 4-1BB-his protein (monkey); test: ELISA, coated monkey 4-1BB-his; Ab 0.08 ug/ml

Sequence of hFc-tagged human 4-1BB extracellular domain protein (4-1BB-hFc) (human) (Q07011 24-186 limits assumed): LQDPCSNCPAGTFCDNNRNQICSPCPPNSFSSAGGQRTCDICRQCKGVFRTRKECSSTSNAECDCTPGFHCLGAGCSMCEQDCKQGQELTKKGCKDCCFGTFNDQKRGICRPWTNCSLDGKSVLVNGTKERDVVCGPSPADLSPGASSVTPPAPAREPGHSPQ
Sequence of OX40 (P43489 29-214): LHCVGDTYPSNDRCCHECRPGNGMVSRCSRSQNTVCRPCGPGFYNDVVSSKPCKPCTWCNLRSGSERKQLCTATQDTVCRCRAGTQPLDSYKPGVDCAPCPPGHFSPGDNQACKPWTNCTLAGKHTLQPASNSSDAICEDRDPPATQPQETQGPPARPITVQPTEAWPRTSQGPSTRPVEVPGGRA
Sequence of GITR (Q9Y5U5 26-162): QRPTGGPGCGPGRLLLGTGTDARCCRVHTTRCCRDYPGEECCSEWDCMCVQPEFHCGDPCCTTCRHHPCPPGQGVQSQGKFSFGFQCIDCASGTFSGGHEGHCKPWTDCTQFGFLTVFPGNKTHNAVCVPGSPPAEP

OD450 nm [1]: 0.36 OD450 nm
OD450 nm [2]: 0.07 OD450 nm
OD450 nm [3]: 0.07 OD450 nm
OD450 nm [4]: 0.07 OD450 nm
OD450 nm [5]: 0.07 OD450 nm
OD450 nm [6]: 0.07 OD450 nm
OD450 nm [7]: 0.07 OD450 nm
OD450 nm [8]: 0.07 OD450 nm
OD450 nm (OX40): 0.32 OD450 nm
OD450 nm (GITR): 0.24 OD450 nm
OD450 nm [9]: 0.07 OD450 nm
Substance: IgG control (human IgG) (antibody)
